Results on six molecules are retold here after patent publication US20140087995A1 (published 2014).

Numbered stars: 1 amine (or outer) side, 2 acyl side, 3 side chain; on linkers, the order of the positions; unused ones are H or OH. Bridge positions count the residues as written; N and C are the ends. Side chains are listed from the residue outwards. Ends that are not written are not given here. * marks the point of attachment. C20 diacid = O=C(O)CCCCCCCCCCCCCCCCCCC(=O)*; γGlu = O=C(O)[C@H](CCC(=O)[*:2])N[*:1]

T1: human calcitonin receptor (human, UniProt P30988 25-474)
T1 construct: whole, on cells; Membranes of stably transfected cells; also called hCTR; hCT
T1 sequence (looked up): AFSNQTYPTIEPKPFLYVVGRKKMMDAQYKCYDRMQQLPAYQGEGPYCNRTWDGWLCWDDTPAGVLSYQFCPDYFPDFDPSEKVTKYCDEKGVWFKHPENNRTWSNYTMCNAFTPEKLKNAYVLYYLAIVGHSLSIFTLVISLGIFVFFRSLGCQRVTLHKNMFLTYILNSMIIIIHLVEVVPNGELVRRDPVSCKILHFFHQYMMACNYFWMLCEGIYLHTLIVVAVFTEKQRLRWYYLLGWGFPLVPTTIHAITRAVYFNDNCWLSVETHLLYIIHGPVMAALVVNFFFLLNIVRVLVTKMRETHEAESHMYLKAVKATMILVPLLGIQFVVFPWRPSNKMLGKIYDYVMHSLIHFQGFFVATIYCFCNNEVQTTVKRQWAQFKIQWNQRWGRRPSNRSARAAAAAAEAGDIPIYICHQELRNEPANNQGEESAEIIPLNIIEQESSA

T2: rat calcitonin receptor (rat, UniProt P32214 25-516)
T2 construct: whole, on cells; Membranes of transiently transfected BHK tk'ts 13 cells; also called rCTR; rat calcitonin (a) receptor
T2 sequence (looked up): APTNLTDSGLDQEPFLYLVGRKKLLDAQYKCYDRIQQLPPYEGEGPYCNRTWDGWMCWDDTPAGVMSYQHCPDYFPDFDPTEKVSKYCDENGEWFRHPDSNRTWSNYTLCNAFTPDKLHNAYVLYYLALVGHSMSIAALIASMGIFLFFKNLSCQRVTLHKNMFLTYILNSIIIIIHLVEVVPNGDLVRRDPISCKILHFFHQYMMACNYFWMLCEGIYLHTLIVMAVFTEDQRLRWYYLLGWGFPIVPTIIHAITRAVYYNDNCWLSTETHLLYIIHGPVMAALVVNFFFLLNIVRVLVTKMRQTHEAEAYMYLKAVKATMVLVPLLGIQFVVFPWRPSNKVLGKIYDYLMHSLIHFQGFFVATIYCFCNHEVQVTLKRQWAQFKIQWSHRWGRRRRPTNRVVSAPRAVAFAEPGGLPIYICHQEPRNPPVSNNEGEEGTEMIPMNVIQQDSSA

T3: rat amylin receptor (rat calcitonin receptor + rat RAMP 3) (rat, UniProt P32214 25-516; Q9JJ73 23-147)
T3 construct: whole, on cells; Membranes of transiently transfected BHK tk'ts 13 cells; also called rAmylin-R; rat amylin 3(a) receptor
T3 sequence (looked up) 1: T2 sequence (looked up)
T3 sequence (looked up) 2: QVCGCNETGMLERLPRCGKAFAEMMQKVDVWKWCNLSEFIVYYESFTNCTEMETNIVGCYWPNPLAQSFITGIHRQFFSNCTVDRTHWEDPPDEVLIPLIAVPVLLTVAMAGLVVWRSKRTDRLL

B1: N^ε1-[(4S)-4-carboxy-4-[[(4S)-4-carboxy-4-(19-carboxynonadecanoylamino)butanoyl]amino]butanoyl]-[Glu14,Arg17,Pro21,Pro27,Pro34,Glu35,Pro37]-h-amylin (peptide)
peptide: K([γGlu-γGlu-C20 diacid])CNTATCATQRLAEFLRHSSPNFGAIPSSTNVGPETP-NH2
modifications: disulfide 2-7; N-terminus assumed
SMILES: CC[C@H](C)[C@H](NC(=O)[C@H](C)NC(=O)CNC(=O)[C@H](Cc1ccccc1)NC(=O)[C@H](CC(N)=O)NC(=O)[C@@H]1CCCN1C(=O)[C@H](CO)NC(=O)[C@H](CO)NC(=O)[C@H](Cc1c[nH]cn1)NC(=O)[C@H](CCCNC(=N)N)NC(=O)[C@H](CC(C)C)NC(=O)[C@H](Cc1ccccc1)NC(=O)[C@H](CCC(=O)O)NC(=O)[C@H](C)NC(=O)[C@H](CC(C)C)NC(=O)[C@H](CCCNC(=N)N)NC(=O)[C@H](CCC(N)=O)NC(=O)[C@@H](NC(=O)[C@H](C)NC(=O)[C@@H]1CSSC[C@H](NC(=O)[C@@H](N)CCCCNC(=O)CC[C@H](NC(=O)CC[C@H](NC(=O)CCCCCCCCCCCCCCCCCCC(=O)O)C(=O)O)C(=O)O)C(=O)N[C@@H](CC(N)=O)C(=O)N[C@@H]([C@@H](C)O)C(=O)N[C@@H](C)C(=O)N[C@@H]([C@@H](C)O)C(=O)N1)[C@@H](C)O)C(=O)N1CCC[C@H]1C(=O)N[C@@H](CO)C(=O)N[C@@H](CO)C(=O)N[C@H](C(=O)N[C@@H](CC(N)=O)C(=O)N[C@H](C(=O)NCC(=O)N1CCC[C@H]1C(=O)N[C@@H](CCC(=O)O)C(=O)N[C@H](C(=O)N1CCC[C@H]1C(N)=O)[C@@H](C)O)C(C)C)[C@@H](C)O
notes: Synthetic acylated analogue of human amylin
B2: N^ε1-[(4S)-4-carboxy-4-[[(4S)-4-carboxy-4-(19-carboxynonadecanoylamino)butanoyl]amino]butanoyl]-[His14,Arg17,Pro21,Pro27]-h-amylin (peptide)
peptide: K([γGlu-γGlu-C20 diacid])CNTATCATQRLAHFLRHSSPNFGAIPSSTNVGSNTY-NH2
modifications: disulfide 2-7; N-terminus assumed
SMILES: CC[C@H](C)[C@H](NC(=O)[C@H](C)NC(=O)CNC(=O)[C@H](Cc1ccccc1)NC(=O)[C@H](CC(N)=O)NC(=O)[C@@H]1CCCN1C(=O)[C@H](CO)NC(=O)[C@H](CO)NC(=O)[C@H](Cc1c[nH]cn1)NC(=O)[C@H](CCCNC(=N)N)NC(=O)[C@H](CC(C)C)NC(=O)[C@H](Cc1ccccc1)NC(=O)[C@H](Cc1c[nH]cn1)NC(=O)[C@H](C)NC(=O)[C@H](CC(C)C)NC(=O)[C@H](CCCNC(=N)N)NC(=O)[C@H](CCC(N)=O)NC(=O)[C@@H](NC(=O)[C@H](C)NC(=O)[C@@H]1CSSC[C@H](NC(=O)[C@@H](N)CCCCNC(=O)CC[C@H](NC(=O)CC[C@H](NC(=O)CCCCCCCCCCCCCCCCCCC(=O)O)C(=O)O)C(=O)O)C(=O)N[C@@H](CC(N)=O)C(=O)N[C@@H]([C@@H](C)O)C(=O)N[C@@H](C)C(=O)N[C@@H]([C@@H](C)O)C(=O)N1)[C@@H](C)O)C(=O)N1CCC[C@H]1C(=O)N[C@@H](CO)C(=O)N[C@@H](CO)C(=O)N[C@H](C(=O)N[C@@H](CC(N)=O)C(=O)N[C@H](C(=O)NCC(=O)N[C@@H](CO)C(=O)N[C@@H](CC(N)=O)C(=O)N[C@H](C(=O)N[C@@H](Cc1ccc(O)cc1)C(N)=O)[C@@H](C)O)C(C)C)[C@@H](C)O
notes: Synthetic acylated analogue of human amylin; also called compound 92
B3: N^ε1-[(4S)-4-carboxy-4-[[(4S)-4-carboxy-4-(19-carboxynonadecanoylamino)butanoyl]amino]butanoyl]-[Glu14,Arg17,Pro21,Pro27,Pro34,His35]-h-amylin (peptide)
peptide: K([γGlu-γGlu-C20 diacid])CNTATCATQRLAEFLRHSSPNFGAIPSSTNVGPHTY-NH2
modifications: disulfide 2-7 (inferred)
notes: as for B1
B4: N^ε1-[(4S)-4-carboxy-4-[[(4S)-4-carboxy-4-(19-carboxynonadecanoylamino)butanoyl]amino]butanoyl]-[Glu14,Arg17,Pro23,Pro34,Glu35]-h-amylin (peptide)
peptide: K([γGlu-γGlu-C20 diacid])CNTATCATQRLAEFLRHSSNNPGAILSSTNVGPETY-NH2
modifications: disulfide 2-7; N-terminus assumed
SMILES: CC[C@H](C)[C@H](NC(=O)[C@H](C)NC(=O)CNC(=O)[C@@H]1CCCN1C(=O)[C@H](CC(N)=O)NC(=O)[C@H](CC(N)=O)NC(=O)[C@H](CO)NC(=O)[C@H](CO)NC(=O)[C@H](Cc1c[nH]cn1)NC(=O)[C@H](CCCNC(=N)N)NC(=O)[C@H](CC(C)C)NC(=O)[C@H](Cc1ccccc1)NC(=O)[C@H](CCC(=O)O)NC(=O)[C@H](C)NC(=O)[C@H](CC(C)C)NC(=O)[C@H](CCCNC(=N)N)NC(=O)[C@H](CCC(N)=O)NC(=O)[C@@H](NC(=O)[C@H](C)NC(=O)[C@@H]1CSSC[C@H](NC(=O)[C@@H](N)CCCCNC(=O)CC[C@H](NC(=O)CC[C@H](NC(=O)CCCCCCCCCCCCCCCCCCC(=O)O)C(=O)O)C(=O)O)C(=O)N[C@@H](CC(N)=O)C(=O)N[C@@H]([C@@H](C)O)C(=O)N[C@@H](C)C(=O)N[C@@H]([C@@H](C)O)C(=O)N1)[C@@H](C)O)C(=O)N[C@@H](CC(C)C)C(=O)N[C@@H](CO)C(=O)N[C@@H](CO)C(=O)N[C@H](C(=O)N[C@@H](CC(N)=O)C(=O)N[C@H](C(=O)NCC(=O)N1CCC[C@H]1C(=O)N[C@@H](CCC(=O)O)C(=O)N[C@H](C(=O)N[C@@H](Cc1ccc(O)cc1)C(N)=O)[C@@H](C)O)C(C)C)[C@@H](C)O
notes: as for B1
B5: N^ε1-[(4S)-4-carboxy-4-[[(4S)-4-carboxy-4-(19-carboxynonadecanoylamino)butanoyl]amino]butanoyl]-[Glu14,Arg17,Pro21,Pro31,Pro34,Glu35]-h-amylin (peptide)
peptide: K([γGlu-γGlu-C20 diacid])CNTATCATQRLAEFLRHSSPNFGAILSSTPVGPETY-NH2
modifications: disulfide 2-7
notes: as for B1
B6: N^ε1-[(4S)-4-carboxy-4-[[(4S)-4-carboxy-4-(19-carboxynonadecanoylamino)butanoyl]amino]butanoyl]-[Glu14,Arg17,Pro21,Pro27,Pro34,Phe37]-h-amylin (peptide)
peptide: K([γGlu-γGlu-C20 diacid])CNTATCATQRLAEFLRHSSPNFGAIPSSTNVGPNTF-NH2
modifications: disulfide 2-7; N-terminus assumed
SMILES: CC[C@H](C)[C@H](NC(=O)[C@H](C)NC(=O)CNC(=O)[C@H](Cc1ccccc1)NC(=O)[C@H](CC(N)=O)NC(=O)[C@@H]1CCCN1C(=O)[C@H](CO)NC(=O)[C@H](CO)NC(=O)[C@H](Cc1c[nH]cn1)NC(=O)[C@H](CCCNC(=N)N)NC(=O)[C@H](CC(C)C)NC(=O)[C@H](Cc1ccccc1)NC(=O)[C@H](CCC(=O)O)NC(=O)[C@H](C)NC(=O)[C@H](CC(C)C)NC(=O)[C@H](CCCNC(=N)N)NC(=O)[C@H](CCC(N)=O)NC(=O)[C@@H](NC(=O)[C@H](C)NC(=O)[C@@H]1CSSC[C@H](NC(=O)[C@@H](N)CCCCNC(=O)CC[C@H](NC(=O)CC[C@H](NC(=O)CCCCCCCCCCCCCCCCCCC(=O)O)C(=O)O)C(=O)O)C(=O)N[C@@H](CC(N)=O)C(=O)N[C@@H]([C@@H](C)O)C(=O)N[C@@H](C)C(=O)N[C@@H]([C@@H](C)O)C(=O)N1)[C@@H](C)O)C(=O)N1CCC[C@H]1C(=O)N[C@@H](CO)C(=O)N[C@@H](CO)C(=O)N[C@H](C(=O)N[C@@H](CC(N)=O)C(=O)N[C@H](C(=O)NCC(=O)N1CCC[C@H]1C(=O)N[C@@H](CC(N)=O)C(=O)N[C@H](C(=O)N[C@@H](Cc1ccccc1)C(N)=O)[C@@H](C)O)C(C)C)[C@@H](C)O
notes: as for B1

In one assay the target is T1, human calcitonin receptor. The assay is described as follows: ratio of IC50 on human calcitonin receptor to IC50 on human amylin receptor (reference m42), SPA competition. Put shortly:
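Membranes (35 ng/μL final) + SPA beads, 50 mM Hepes pH 7.4 buffer with 1 mM CaCl2, 5 mM MgCl₂, 0.1% OA, 0.02% Tween20; 120 min, 25° C, shaking; centrifuged, counted; IC₅₀ by one-site binding competition.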
For B1, the “Ratio hCT/hAmylin binding” value is 0.4.
Still for that read-out and setting: the value for B2 was 145; that for B3 was 27.3.
As for B4, the “Ratio hCT/hAmylin binding” value was found to be 7.8.
The same measure, in the same setting: the value for B5 was 22.6; that for B6 was 18.

The target of a further assay is T2, rat calcitonin receptor. The assay is described as follows: ratio of IC50 on rat calcitonin receptor to IC50 on rat amylin receptor (reference m40).
For the molecule B1, the “Ratio rCT/rAmylin binding” value turned out to be 10.6.
The same measure, in the same setting: the value for B2 was 156; that for B3 was 73.
The same measure, in the same setting: the value for B4 was 132; that for B5 was 74.7; that for B6 was 114.

In a further assay the target is T2, rat calcitonin receptor. The assay is described as follows: SPA competition with 125I-calcitonin on membranes of BHK tk'ts 13 cells with rat calcitonin receptor (Assay VIII).
The term IC50 denotes the point on the concentration scale where inhibition reaches its midpoint. For B1, the IC50 stood at 1.61 nM.
Still for that read-out and setting: the value for B2 was 104 nM; that for B3 was 21 nM.
B4: the IC50 stood at 86.8 nM.
On the same count and under the same terms, the value for B5 was 33.5 nM; that for B6 was 23.4 nM.

The target in a further assay is T3, rat amylin receptor (rat calcitonin …). The assay is described as follows: SPA competition with 125I-rat amylin on membranes of BHK tk'ts 13 cells with rat calcitonin receptor + rat RAMP3 (Assay VI).
With B1, the IC50 stood at 0.152 nM.
The same measure, in the same setting: the value for B2 was 0.668 nM.
Take B3: the IC50 was found to be 0.288 nM.
B4: the IC50 turned out to be 0.659 nM.
The same measure, in the same setting: the value for B5 was 0.449 nM; that for B6 was 0.205 nM.
